Test results: US20140212458A1

Molecular target: BG505.T332N Env on Env-pseudotyped virus (HIV-1 BG505 (clade A))

CD4-IgG2 (Fc fusion)
IC50, neutralization of BG505.T332N pseudovirus, TZM-bl cells: 0.433 µg/mL
